Measurements reported in paper PMC10410706 (Proceedings of the National Academy of Sciences of the …, 2023).
Blank lines part the entries; values can stand above or below the binder they belong to.

B3: Smaug 73-278Δ156-196 (Smaug part of the single-chain crystallisation construct) (domain or fragment, Drosophila, UniProt Q23972 73-278, looked up)
chain: LFCEQVTTVTNLFEKWNDCERTVVMYALLKRLRYPSLKFLQYSIDSNLTQNLGTSQTNLSSVVIDINANNPVYLQNLLNAYKTARKEDILHEVLNMLPLLKPGNEEAKLIYLTLIPVAVKDTMQQIVPTELVQQIFSYLLIHPAITSEDRRSLNIWLRHLEDHIQ
B4: Smaug NTD (aa 70-281, His-tag removed) (domain or fragment, Drosophila, UniProt Q23972 70-281, looked up)
chain: SNALFCEQVTTVTNLFEKWNDCERTVVMYALLKRLRYPSLKFLQYSIDSNLTQNLGTSQTNLSSVVIDINANNPVYLQNLLNAYKTFQPCDLLDAMSSSSSDKDSMPCYGSDFQITTSAQCDERKLYARKEDILHEVLNMLPLLKPGNEEAKLIYLTLIPVAVKDTMQQIVPTELVQQIFSYLLIHPAITSEDRRSLNIWLRHLEDHIQAAA
B5: Smoothened 970-1003 synthetic peptide (wild-type) (peptide)
peptide: VPSYGEDELQQAMRLLNAASRQRTEAANEDFGGT

What was measured:
[1] = target: T1, Smaug NTD (Drosophila melanogaster, UniProt Q23972 70-281); test: EMSA
T1 sequence: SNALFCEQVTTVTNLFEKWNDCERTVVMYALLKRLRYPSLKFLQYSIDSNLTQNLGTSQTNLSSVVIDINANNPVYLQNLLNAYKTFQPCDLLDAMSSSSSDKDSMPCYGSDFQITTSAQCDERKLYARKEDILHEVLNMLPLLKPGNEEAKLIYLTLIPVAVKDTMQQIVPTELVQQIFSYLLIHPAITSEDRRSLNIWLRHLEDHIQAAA

[2] = target: B3; test: crystal structure
[3] = target: the molecule itself; test: crystal structure
[4] = target: B5; test: ITC
[5] = target: B4; test: ITC

B1: R13C (ssRNA)
RNA: AGCACCGUAAAGC
- binding result [1]: no binding

- binding result [2]: binds
B2: Smo 970-1003 (Smoothened part of the single-chain crystallisation construct) (peptide)
chain: VPSYGEDELQQAMRLLNAASRQRTEAANEDFGGT

Binder: B3
- binding result [3]: binds

Binder: B4
- stoichiometry N [4]: 1

Binder: B5
- Kd [5]: 800 nM
